T1: amphyphisin SH3 (AMPH_HUMAN), P49418
T1 chain: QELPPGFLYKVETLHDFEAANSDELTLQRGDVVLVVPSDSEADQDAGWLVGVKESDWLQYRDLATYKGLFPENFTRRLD


Key:
[1] = target: T1, amphyphisin SH3 (AMPH_HUMAN), P49418; experiment: SPOT array
[2] = target: endophilin SH3 (SH3G2_HUMAN), Q99962; experiment: SPOT array

Binder	normalised SPOT signal, Boehringer light units (BLU); mean over the file's lines of this peptide [1]	normalised SPOT signal, Boehringer light units (BLU); mean over the file's lines of this peptide [2]
DPRTPRRPRSARAG [Q9H901 24-37]	59.5	203
DTLNIRRPLVKMVY [Q9P0U0 373-386]	24.3	60.9
DNLKLFRPKKLLPK [Q9BQL6 374-387]	41.9	71.6
AEERPRRPSQEQSA [Q9Y4D0 963-976]	17.3	882
DVIIPAKPPVSFFS [Q96K45 88-102]	15.7	53.1
DPEDLKRPDPASLK [Q8WTY4 218-231]	16.1	82.4
DPNAPKRPLSGFFL [Q9UJ13 78-91]	40.7	1710
DPEVLKRPEYFGKF [Q9NZN6 122-135]	43.9	108
DPSPPRRPQHNSSG [Q96LS7 199-212]	45	238
DTALLPRPERRSSL [Q9Y2E3 518-531]	112	65.4
AEILPRRPPTPEAQ [Q9BTK6 128-142]	57.4	32.7
DPSGLPRPQKIPIS [Q9H591 280-293]	149	112
DTYRPKRPTTLNLF [Q9UQF2 154-167]	75.1	1540
DVPAFVRPARVEPT [Q9C0A3 802-815]	4540	72.7
DTTSPSRPPGGPII [Q9Y2E5 978-992]	36.5	72.7
DPQAPRRPPSSFLL [Q8WW32 89-102]	108	1200
DRPIIDRPIRGRGG [Q9Y367 154-167]	325	192
DSPLPRRPAFSGTS [Q9HBB0 94-107]	11.5	971
DPNTFKRPQTPPKI [Q9Y4E3 337-350]	27.3	39.4
DVTDPKRPLSFGVT [Q9P2C6 232-245]	1.7	37.5
DPNFPNKPPLTFDI [Q9H314 810-824]	45.5	47.9
DPPGPPRPPKEPGP [Q9NR59 1285-1299]	73.4	468

Second part, the binder after the results:

normalised SPOT signal, Boehringer light units (BLU); mean over the file's lines of this peptide [1]	normalised SPOT signal, Boehringer light units (BLU); mean over the file's lines of this peptide [2]	Binder
78.7	101	DTPPPSRPEKKKAD [P12111 1626-1639]
25.9	63	DTKALRRPKSAELH [P07949 469-482]
41.4	82.6	DPNAPKRPMSAYML [Q08945 543-556]
30.7	57.1	DSPSFSRPSKYSPG [O14905 71-84]
20.2	80.5	DSGQPRRPGQSPLS [O75111 1249-1262]
39.5	3610	DPNAPKRPPSAFFL [P09429 90-103]
183	948	DPRRPKRPRTILTT [O60663 192-205]
9010	2630	DVLSPLRPSRRHFP [Q12756 1091-1104]
10.4	0	EADSIPRPYRSQQS [O15015 40-53]
32	8420	DPNAPKRPPLAFFL [P23497 765-778]
43.9	54.5	DVVPPIKPPKEIED [O14967 255-269]
360	62.2	DRWDPTRPPRATDT [O95180 738-751]
43.4	46.9	DQIPPNKPPWFDQP [O00302 379-393]
129	144	DRFPLKRPRYEDSD [O94913 808-821]
574	7650	DRPKPPRPPTGRPS [P51512 320-334]
8310	377	EAGSPRRPRRQRSD [Q15015 1069-1082]
20	5320	DPNAPKRPPSGFFL [O15347 88-101]
26.9	116	AEMTFRRPAQAFPV [P07949 672-685]
20.6	33.1	DPNPPKRPLIFDTN [O14802 1370-1383]
50.3	291	AEGPPKRPGGSSPL [P48634 1665-1678]
